Patent publication US12269859B2, “Synthetic immune receptors and methods of use thereof” (Angeles Therapeutics, Inc., priority 2016, dated 2025)

System: target antigen-expressing cell line
Assay: Jurkat NFAT-GFP assay, coculture with target cell lines expressing the respective target antigen (summary Table 10A)
Format: cell-based, human
Design: key: The signs +/−, +, 2+ etc. after the name of the cell lines indicate the relative degree of positivity on the Jurkat-NFAT-GFP assay as measured by the % GFP positive cells; +: relative degree of positivity on the Jurkat-NFAT-GFP assay as measured by the % GFP positive cells; 2+: relative degree of positivity on the Jurkat-NFAT-GFP assay as measured by the % GFP positive cells
Details: relative % GFP positive cells; for NFAT-GFP ASSAY Positive Cell lines: RAJI: SIR-expressing Jurkat-NFAT-GFP cells cocultured with RAJI
Procedure: (B) Induction of NFAT promoter driven GFP expression. The control vector- and SIR-expressing Jurkat-NFAT-GFP cocultured for 4-24 hours with the target antigen-expressing cell line (described above) and their ability to bind to the target antigen is assayed by measuring induction of GFP expression using Flow Cytometry. Cellular supernatant is collected and assayed for the induction of cytokines (e.g., IL2).
Jurkat NFAT-GFP Assay For Synthetic Immune Receptors. The Jurkat-NFAT-GFP cells are engineered in such a way that the IL-2 promoter, which carries NFAT binding sites, is cloned upstream of the GFP gene. These cells have been used to study signaling via TCR and CAR. The different SIRs were stably expressed in Jurkat NFAT-GFP cells by lentiviral mediated gene transfer, followed by selection with puromycin. The SIR-expressing Jurkat-NFAT-GFP cells were cocultured with the target cells at E:T ratio of approximately 1:2 for approximately 4 hours to 18 hours. When the interaction between SIRs and their target antigen results in activation of the NFAT pathway, GFP expression is induced.
Induction of GFP expression by coculturing of Jurkat-NFAT-GFP cells expressing different SIR constructs and the different target cells was studied essentially as described previously (Wu, Roybal, Puchner, Onuffer, & Lim, 2015). GFP expression was monitored by FACS analysis. A few representative examples of this assay are shown in the FIG. 13A-B. In panel A, control Jurkat-NFAT-GFP cells or those expressing SIRs targeting CD19 (clone ID 051716-I08), MPL (Clone ID: 040716-A07) and BCMA (Clone ID: 011116-A07) were incubated with RAJI (top), HEL (middle) or U266 (bottom) cells, respectively. […] In panel B, Jurkat cells expressing SIR targeting CDH6 (Clone ID: 051716-J05), CD276 (Clone ID: 050516-Q06) and Her2/neu (Clone ID: 050516-I03) were incubated with SKOV3 (top) and […] (middle and bottom) cells, respectively. […] The Jurkat-NFAT-GFP cells were engineered to express different SIRs targeting other antigens and the experiment repeated upon coculture with the target cells expressing their respective target antigen. The Jurkat-NFAT-GFP (parental) cells were used as control. The names of different SIRs, their SEQ ID NOs, component antigen binding domains and TCR chains can be determined by reference to Tables 7A-7H. A SIR is considered positive in the assay in case the SIR expressing Jurkat-NFAT-GFP cells show greater % GFP positive cells when cultured with the target cell line as compared to parental Jurkat-NFAT-GFP cells. […] The signs +/−, +, 2+ etc. after the name of the cell lines indicate the relative degree of positivity on the Jurkat-NFAT-GFP assay as measured by the % GFP positive cells after culture of the SIR expressing Jurkat-NFAT-GFP cells with that cell line. […] In addition, great diversity of response against the same target cell line is observed with Jurkat cells expressing SIRs containing different antigen binding domains targeting the same antigen (e.g., SIRs having antigen binding domains derived form different CD19 antibodies) even when the SIRs share the same TCR chains and linkers. Finally, Jurkat cells expressing SIRs targeting different antigens (e.g. CD19 vs CD20) show a diversitiy of response when exposed to the same target cell line. Thus, a diverse immune response can be generated against a single target cell by combining SIRs with different TCR chains, linkers, antigen binding domains and target specificity. Table 10A also summarizes the results of GLuc based T cell cytotoxicity assay observed with different SIRs when exposed to their target cell lines. […]

Molecule	NFAT-GFP ASSAY Positive Cell lines: RAJI	NFAT-GFP ASSAY Positive Cell lines: NALM6 (SIR-expressing Jurkat-NFAT-GFP cells cocultured with NALM6)	NFAT-GFP ASSAY Positive Cell lines: HepG2 (SIR-expressing Jurkat-NFAT-GFP cells cocultured with HepG2)
072516-B05 (protein, Synthetic Immune Receptor (SIR)) MALPVTALLLPLALLLHAARPEIVMTQSPATLSLSPGERATLSCRASQDISKYLNWYQQKPGQAPRLLIYHTSRLHSGIPARFSGSGSGTDYTLTISSLQPEDFAVYFCQQGNTLPYTFGQGTKLEIKLEGKPIPNPLLGLDSTGSGEDLKNVFPPEVAVFEPSKAEIAHTQKATLVCLATGFYPDHVELSWWVNGKEVHSGVCTDPQPLKEQPALNDSRYCLSSRLRVSATFWQNPRNHFRCQVQFYGLSENDEWTQDRAKPVTQIVSAEAWGRADCGITSASYHQGVLSATILYEILLGKATLYAVLVSALVLMAMVKRKDSRGRAKRSGSGATNFSLLKQAGDVEENPGPTSMDWIWRILFLVGAATGAHSFEQVQLQESGPGLVKPSETLSLTCTVSGVSLPDYGVSWIRQPPGKGLEWIGVIWGSETTYYNSSLKSRVTISKDNSKNQVSLKLSSVTAADTAVYYCAKHYYYGGSYAMDYWGQGTLVTVSSTREQKLISEEDGSGIQNPDPAVYQLRDSKSSDKSVCLFTDFDSQTNVSQSKDSDVYITDKCVLDMRSMDFKSNSAVAWSNKSDFACANAFNNSIIPEDTFFPSSDVPCDVKLVEKSFETDTNLNFQNLSVIGFRILLLKVAGFNLLMTLRLWSSRAKRSGSGVKQTLNFDLLKLAGDVESNPGPSRGHMTEYKPTVRLATRDDVPRAVRTLAAAFADYPATRHTVDPDRHIERVTELQELFLTRVGLDIGKVWVADDGAAVAVWTTPESVEAGAVFAEIGPRMAELSGSRLAAQQQMEGLLAPHRPKEPAWFLATVGVSPDHQGKGLGSAVVLPGVEAAERAGVPAFLETSAPRNLPFYERLGFTVTADVEVPEGPRTWCMTRKPGA	RAJI(+/−)	–	–
101216-H03 (protein) MALPVTALLLPLALLLHAARPEIVMTQSPATLSLSPGERATLSCRASQDISKYLNWYQQKPGQAPRLLIYHTSRLHSGIPARFSGSGSGTDYTLTISSLQPEDFAVYFCQQGNTLPYTFGQGTKLEIKLEGKPIPNPLLGLDSTGSGEDLKNVFPPEVAVFEPSKAEIAHTQKATLVCLATGFYPDHVELSWWVNGKEVHSGVCTDPQPLKEQPALNDSRYCLSSRLRVSATFWQNPRNHFRCQVQFYGLSENDEWTQDRAKPVTQIVSAEAWGRADCGITSASYHQGVLSATILYEILLGKATLYAVLVSALVLMAMVKRKDSRGRAKRSGSGATNFSLLKQAGDVEENPGPTSMDWIWRILFLVGAATGAHSFEDIQMTQTTSSLSASLGDRVTISCRASQDISKYLNWYQQKPDGTVKLLIYHTSRLHSGVPSRFSGSGSGTDYSLTISNLEQEDIATYFCQQGNTLPYTFGGGTKLEITTREQKLISEEDGSGIQNPDPAVYQLRDSKSSDKSVCLFTDFDSQTNVSQSKDSDVYITDKCVLDMRSMDFKSNSAVAWSNKSDFACANAFNNSIIPEDTFFPSSDVPCDVKLVEKSFETDTNLNFQNLSVIGFRILLLKVAGFNLLMTLRLWSSRAKRSGSGVKQTLNFDLLKLAGDVESNPGPSRGHMTEYKPTVRLATRDDVPRAVRTLAAAFADYPATRHTVDPDRHIERVTELQELFLTRVGLDIGKVWVADDGAAVAVWTTPESVEAGAVFAEIGPRMAELSGSRLAAQQQMEGLLAPHRPKEPAWFLATVGVSPDHQGKGLGSAVVLPGVEAAERAGVPAFLETSAPRNLPFYERLGFTVTADVEVPEGPRTWCMTRKPGA	RAJI(2+), NALM6(2+)	RAJI(2+), NALM6(2+)	–
012617-N02 (protein) MALPVTALLLPLALLLHAARPLEGKPIPNPLLGLDSTGSGEDLKNVFPPEVAVFEPSKAEIAHTQKATLVCLATGFYPDHVELSWWVNGKEVHSGVCTDPQPLKEQPALNDSRYCLSSRLRVSATFWQNPRNHFRCQVQFYGLSENDEWTQDRAKPVTQIVSAEAWGRADCGITSASYHQGVLSATILYEILLGKATLYAVLVSALVLMAMVKRKDSRGRAKRSGSGATNFSLLKQAGDVEENPGPTSMALPVTALLLPLALLLHAARPQSVVTQPPSVSAAPGQKVTISCSGSSSNIGNNYVSWYQQLPGTAPKLLIYDNNKRPSGIPDRFSGSKSGTSATLGITGLQTGDEADYYCGTWDGSLYTMLFGGGTKLTVLGGGGSGGGGSGGGGSEVQLVESGGGLVKPGGSLRLSCAASGFTFSNAWMSWVRQAPGKGLEWVGFIRSKAYGGTTEYAASVKGRFTISRDDSKSIAYLQMNNLKTEDTAVYYCARDGLYSSSWYDSDYWGQGTLVTVSSTREQKLISEEDGSGIQNPDPAVYQLRDSKSSDKSVCLFTDFDSQTNVSQSKDSDVYITDKCVLDMRSMDFKSNSAVAWSNKSDFACANAFNNSIIPEDTFFPSSDVPCDVKLVEKSFETDTNLNFQNLSVIGFRILLLKVAGFNLLMTLRLWSSRAKRSGSGVKQTLNFDLLKLAGDVESNPGPSRGHMTEYKPTVRLATRDDVPRAVRTLAAAFADYPATRHTVDPDRHIERVTELQELFLTRVGLDIGKVWVADDGAAVAVWTTPESVEAGAVFAEIGPRMAELSGSRLAAQQQMEGLLAPHRPKEPAWFLATVGVSPDHQGKGLGSAVVLPGVEAAERAGVPAFLETSAPRNLPFYERLGFTVTADVEVPEGPRTWCMTRKPGA	–	–	HepG2 (+/−)
091216-K03 (protein, Synthetic Immune Receptor (SIR)) MALPVTALLLPLALLLHAARPLEGKPIPNPLLGLDSTGSGEDLKNVFPPEVAVFEPSKAEIAHTQKATLVCLATGFYPDHVELSWWVNGKEVHSGVCTDPQPLKEQPALNDSRYCLSSRLRVSATFWQNPRNHFRCQVQFYGLSENDEWTQDRAKPVTQIVSAEAWGRADCGITSASYHQGVLSATILYEILLGKATLYAVLVSALVLMAMVKRKDSRGRAKRSGSGATNFSLLKQAGDVEENPGPTSTMALPVTALLLPLALLLHAARPEIVMTQSPATLSLSPGERATLSCRASQDISKYLNWYQQKPGQAPRLLIYHTSRLHSGIPARFSGSGSGTDYTLTISSLQPEDFAVYFCQQGNTLPYTFGQGTKLEIKGGGGSGGGGSGGGGSQVQLQESGPGLVKPSETLSLTCTVSGVSLPDYGVSWIRQPPGKGLEWIGVIWGSETTYYNSSLKSRVTISKDNSKNQVSLKLSSVTAADTAVYYCAKHYYYGGSYAMDYWGQGTLVTVSSTREQKLISEEDGSGIQNPDPAVYQLRDSKSSDKSVCLFTDFDSQTNVSQSKDSDVYITDKCVLDMRSMDFKSNSAVAWSNKSDFACANAFNNSIIPEDTFFPSSDVPCDVKLVEKSFETDTNLNFQNLSVIGFRILLLKVAGFNLLMTLRLWSSRAKRSGSGVKQTLNFDLLKLAGDVESNPGPSRGHMTEYKPTVRLATRDDVPRAVRTLAAAFADYPATRHTVDPDRHIERVTELQELFLTRVGLDIGKVWVADDGAAVAVWTTPESVEAGAVFAEIGPRMAELSGSRLAAQQQMEGLLAPHRPKEPAWFLATVGVSPDHQGKGLGSAVVLPGVEAAERAGVPAFLETSAPRNLPFYERLGFTVTADVEVPEGPRTWCMTRKPGA	RAJI (+/−)	–	–
